1 substance from PMC2814127 can be followed below.

Test [1] has as its target actin (rabbit fast twitch skeletal muscle), reconstituted as actin filament in gelsolin-extracted bovine myocardium (rabbit) (UniProt P68135).
The target is the same in test [2]. This is another data set of the same source.

In test [1], “myosin of bovine myocardium (thick filament, cross-bridges) (from UniProt Q9BE39 1-1935) (complex)” yielded a Stiffness at pCa 7 (25°C), fibres reconstituted with acetyl Tm (from bovine myocardium) and Tn of 0.038 T ac; a Stiffness at pCa 7 (25°C), fibres reconstituted with nfTm and Tn of 0.044 T ac; a Stiffness at pCa 7 (25°C), fibres reconstituted with ∆2Tm and Tn of 0.039 T ac; a Stiffness at pCa 7 (25°C), fibres reconstituted with ∆3Tm and Tn of 0.04 T ac. In test [1], this substance came in with a Tension at pCa 7 (25°C), fibres reconstituted with acetyl Tm (from bovine myocardium) and Tn of 0.168 T ac; a Tension at pCa 7 (25°C), fibres reconstituted with nfTm and Tn of 0.065 T ac; a Tension at pCa 7 (25°C), fibres reconstituted with ∆2Tm and Tn of 0.109 T ac; a Tension at pCa 7 (25°C), fibres reconstituted with ∆3Tm and Tn of 0.196 T ac. Moreover, in test [2], the Rigor stiffness (100 Hz, 25°C), fibres reconstituted with nfTm and Tn was 166 T ac; the Rigor stiffness (100 Hz, 25°C), fibres reconstituted with ∆2Tm and Tn was 201 T ac; the Rigor stiffness (100 Hz, 25°C), fibres reconstituted with ∆3Tm and Tn amounted to 249 T ac; the Tension (T m), steady-state active tension in the standard activating solution at 25°C, fibres reconstituted with nfTm and Tn was found to be 1.51 T ac. For the same substance, in test [2], the Tension (T m), steady-state active tension in the standard activating solution at 25°C, fibres reconstituted with ∆2Tm and Tn came to 1.65 T ac; the Tension (T m), steady-state active tension in the standard activating solution at 25°C, fibres reconstituted with ∆3Tm and Tn amounted to 0.91 T ac.
